The results in this text go back to patent publication US20240409638A1 (AVACTA LIFE SCIENCES, published 2024).

For orientation: Kd means the concentration at which binding is half-saturated. Read a low Kd as tighter binding. As usually defined, the EC50 is the midpoint of the concentration-response curve. Low values mean an effect from little substance, high ones a need for much substance. A word on the koff: it is a measure of how fast the partners let go of each other. Low readings indicate a long-lived complex, high ones a short-lived complex. The kon is a measure of how fast the partners come together. Lower therefore signals slow association. As a reminder, the IC50 is the concentration that gives 50% inhibition. Read a low IC50 as greater potency.

Assay [1] has as its target T1, murine serum albumin (MSA) (murine, UniProt P07724 25-608).
T1 construct: Bought reagent
The experiment in a line: SPR, Biacore, MSA amine-coupled on CM5; E. coli-produced format. (SPR reads the build-up and loss of mass on a sensor chip optically.)

Assay [2] deals with T2, human PD-L1-Fc (R&D Systems) (human, UniProt Q9NZQ7 19-239).
T2 construct: Bought reagent; also called huPD-L1-Fc; huPD-L1; not shown: Fc part of the bought fusion
The experiment in a line: human PD-L1-Fc binding ELISA: huPD-L1-Fc coated, anti-cystatin A detection. A general note: ELISA stands for enzyme-linked immunosorbent assay.

Assay [3] has as its target T2, human PD-L1-Fc (R&D Systems). The experiment in a line: SPR (Biacore) kinetics: human PD-L1-Fc immobilised on a CM5 chip, AFFIMER as analyte.
The target is the same in assay [4]. The experiment in a line: human PD-L1-Fc binding ELISA: huPD-L1-Fc coated, anti-cystatin A detection, no HSA in the assay buffer. The procedure: (§1) Plates were washed and AFFIMER® polypeptides were detected using streptavidin-HRP for 30 min. After the last washing step, the TMB substrate was added for the development of the experiment and plates were read at 450 nm. The EC₅₀ was then calculated using the interpolated non-linear four-parameters standard curve.

Assay [5] has the same target. The experiment in a line: human PD-L1-Fc binding ELISA: huPD-L1-Fc coated, anti-cystatin A detection, with 10 µM HSA in the assay buffer. How it is done: as §1
Assay [6] shares this target. The experiment in a line: SPR (Biacore) kinetics: human PD-L1-Fc immobilised on a CM5 chip, AFFIMER as analyte (column KD (pM), the same fit as the KD (M) column).
Assay [7] has the same target. The experiment in a line: human PD-L1-Fc/HSA bridging ELISA: huPD-L1-Fc coated, AFFIMER titrated with 10 µM HSA, detection with HRP-conjugated anti-HSA antibody (the signal needs PD-L1 and HSA bound at once). The procedure: After saturation with 5% casein/PBS buffer, the plates were washed and a dilution of AFFIMER® polypeptides or controls was incubated with HSA at a final concentration of 10 μM for 90 minutes. Plates were then washed, and a […] polyclonal antibody, anti-HSA (HRP-conjugated) (Abcam), was added for 90 minutes. After a last washing step, TMB was added for the development of the experiment and the plates were read at 450 nm. The EC₅₀ was then calculated using the interpolated non-linear four-parameters standard curve (FIG. 10).

The target is the same in assay [8]. The experiment in a line: PD-L1/PD-1 competition ELISA (binding inhibition %): human PD-1-Fc coated, AFFIMER preincubated with huPD-L1-Fc at its EC80, bound PD-L1 detected; blocked ligand: human PD-1-Fc. The table column is headed 'EC50 (nM)'; the text calls the values IC50. How it is done:
Plates were washed two times with washing buffer (PBS, Tween 20 0.1%) with a plate washer and saturated with Casein 5% (Sigma) in PBS for 90 minutes at room temperature (25±1° C.). […] Plates were washed 3 times as described previously. […] Plates were washed 3 times as described previously and Streptavidin-HRP was added, and the plates were incubated for 30 minutes at room temperature (25±1° C.). Plates were washed a last time and the substrate (TMB; Pierce Thermo-Scientific) was added to the plate. After 10 minutes, the reaction was stopped using an acidic solution and the plates were read at absorbance 450-630 nm. The IC₅₀ was then calculated using the interpolated non-linear four-parameters standard curve.

T2 sequence (Q9NZQ7 19-239 limits assumed): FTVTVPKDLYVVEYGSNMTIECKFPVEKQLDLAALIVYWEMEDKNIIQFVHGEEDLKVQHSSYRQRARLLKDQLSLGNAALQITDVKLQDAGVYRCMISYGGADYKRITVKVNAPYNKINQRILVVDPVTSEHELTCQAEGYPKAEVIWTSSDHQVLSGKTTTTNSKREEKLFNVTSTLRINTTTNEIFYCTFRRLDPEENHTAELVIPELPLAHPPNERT

B1: Clone 80 XT35 (anti-PD-L1 type III AFFIMER® XT in-line fusion dimer XT) (designed binder)
chain: MIPGGLSEAKPATPEIQEIVDKVKPQLEEKTGETYGKLEAVQYKTQVVRRKHFPQWPGTNYYIKVRAGDNKYMHLKVFKSLDLQPREVFQEDLVLTGYQVDKNKDDELTGFAEAAAKEAAAKEAAAKEAAAKEAAAKEAAAKMIPGGLSEAKPATPEIQEIVDKVKPQLEEKTGETYGKLEAVQYKTQVVRRKHFPQWPGTNYYIKVRAGDNKYMHLKVFKSLDLQPREVFQEDLVLTGYQVDKNKDDELTGFAEAAAKEAAAKEAAAKEAAAKEAAAKEAAAKMIPRGLSEAKPATPEIQEIVDKVKPQLEEKTNETYGKLEAVQYKTQVLANFFQRRWPGSTNYYIKVRAGDNKYMHLKVFNGPWKFRNTDRGADRVLTGYQVDKNKDDELTGFHHHHHH
notes: Made in E. coli; Two Clone 80 units are fused to one HSA-41; also called XT35_1; ILF trimer format
As for B1, the Kd in assay [1] is 269 nM; in assay [3], 0.0796 nM; in assay [6] it was 0.0796 nM. Also, the concentration giving a half-maximal response (EC50) in assay [2] was 0.01 nM; in assay [4], 0.036 nM; in assay [5] it was 0.04 nM; in assay [7], 0.57 nM. This molecule also returned a koff in assay [3] of 0.000123 s⁻¹. The same molecule showed an association rate constant (kon) in assay [3] of 1.55e+06 M⁻¹ s⁻¹. For the same molecule, the half-maximal inhibitory concentration (IC50) in assay [8] turned out to be 0.84 nM.
